Results reported in the supplement of paper PMC11246515.
± gives the standard deviation of the averaged measurements.

Assay: total protein half-life in vivo (active degradation + dilution); higher = more stable protein
[1] = wild type E. coli NCM3722, growth: P-lim chemostat, doubling time 12 h
[2] = E. coli NCM3722 delta-clpP, growth: N-lim chemostat, doubling time 6 h
[3] = E. coli NCM3722 delta-hslV, growth: N-lim chemostat, doubling time 6 h
[4] = wild type E. coli NCM3722, growth: C-lim chemostat, doubling time 6 h
[5] = wild type E. coli NCM3722, growth: C-lim chemostat, doubling time 12 h
[6] = wild type E. coli NCM3722, growth: N-lim chemostat, doubling time 6 h
[7] = wild type E. coli NCM3722, growth: N-lim chemostat, doubling time 12 h
[8] = wild type E. coli NCM3722, growth: P-lim chemostat, doubling time 6 h
[9] = E. coli NCM3722 delta-lon, growth: N-lim chemostat, doubling time 6 h
[10] = E. coli NCM3722 delta-smpB, growth: N-lim chemostat, doubling time 6 h
[11] = wild type E. coli NCM3722, growth: C-lim chemostat, doubling time 3 h

| Sequence | total protein half-life in vivo [1] | total protein half-life in vivo [2] | total protein half-life in vivo [3] | total protein half-life in vivo [4] | total protein half-life in vivo [5] | total protein half-life in vivo [6] | total protein half-life in vivo [7] | total protein half-life in vivo [8] | total protein half-life in vivo [9] | total protein half-life in vivo [10] | total protein half-life in vivo [11] | total protein half-life in vivo (E. coli NCM3722 delta-clpP delta-lon delta-hslV, growth: N-lim chemostat, doubling time 6 h) |
| --- | --- | --- | --- | --- | --- | --- | --- | --- | --- | --- | --- | --- |
| MSGKPAARQGDMTQYGGSIVQGSAGVRIGAPTGVACSVCPGGVTSGHPVNPLLGAKVLPGETDIALPGPLPFILSRTYSSYRTKTPAPVGSLGPGWKMPADIRLQLRDNTLILSDNGGRSLYFEHLFPGEDGYSRSESLWLVRGGVAKLDEGHRLAALWQALPEELRLSPHRYLATNSPQGPWWLLGWCERVPEADEVLPAPLPPYRVLTGLVDRFGRTQTFHREAAGEFSGEITGVTDGAGRHFRLVLTTQAQRAEEARQQAISGGTEPSAFPDTLPGYTEYGRDNGIRLSAVWLTHDPEYPENLPAAPLVRYGWTPRGELAAVYDRSNTQVRSFTYDDKYRGRMVAHRHTGRPEICYRYDSDGRVTEQLNPAGLSYTYQYEKDRITITDSLNRREVLHTQGEGGLKRVVKKEHADGSVTQSQFDAVGRLRAQTDAAGRTTEYSPDVVTGLITRITTPDGRASAFYYNHHSQLTSATGPDGLEIRREYDEWGRLIQETAPDGDITRYRYDNPHSDLPCATEDATGSRKTMTWSRYGQLLSFTDCSGYVTRYDHDRFGQVTAVHREEGLSQYRAYDSRGQLIAVKDTQGHETRYEYNAAGDLTTVIAPDGSRNGTQYDAWGKAICTTQGGLTRSMEYDAAGRVIRLTSENGSHTTFRYDVLDRLIQETGFDGRTQRYHHDLTGKLIRSEDEGLVTHWHYDEADRLTHRTVNGETAERWQYDERGWLTDISHISEGHRVTVHYGYDSKGRLASEHLTVHHPQTNELLWQHETRHAYNAQGLANRCIPDSLPAVEWLTYGSGWLSGMKLGDTPLVEYTRDRLHRETLRSFGRYELTTAYTPAGQLQSQHLNSLLSDRDYTWNDNGELIRISSPRQTRSYSYSTTGRLTGVHTTAANLDIRIPYTTDPAGNRLPDPELHPDSALSMWPDNRIARDAHYLYRYDRHGRLTEKTDLIPEGVIRTDDERTHRYHYDSQHRLVHYTRTQYAEPLVESRYLYDPLGRRVAKRVWRRERDLTGWMSLSRKPQVTWYGWDGDRLTTIQNDRTRIQTIYQPGSFTPLIRVETATGELAKTQRRSLADTLQQSGGEDGGSVVFPPVLVQMLDRLESEILADRVSEESRRWLASCGLTVAQMQSQMDPVYTPARKIHLYHCDHRGLPLALISTEGTTAWYAEYDEWGNLLNEENPHQLQQLIRLPGQQYDEESGLYYNRHRYYDPLQGRYITQDPIGLKGGWNFYQYPLNPISNIDPLGLETLKCIKPLHSMGGTGERSGPDIWGNPFYHQYLCVPDGKGDYTCGGQDQRGESKGDGLWGPGKASNDTKEAAGRCDLVETDNSCVENCLKGKFKEVRPRYSVLPDIFTPINLGLFKNCQDWSNDSLETCKMKCSGNNIGRFIRFVFTGVM | 13.1 h | – | – | – | – | – | – | – | – | – | – | – |
| MSGKPAARQGDMTQYGGSIVQGSAGVRIGAPTGVACSVCPGGVTSGHPVNPLLGAKVLPGETDIALPGPLPFILSRTYSSYRTKTPAPVGSLGPGWKMPADIRLQLRDNTLILSDNGGRSLYFEHLFPGEDGYSRSESLWLVRGGVAKLDEGHRLAALWQALPEELRLSPHRYLATNSPQGPWWLLGWCERVPEADEVLPAPLPPYRVLTGLVDRFGRTQTFHREAAGEFSGEITGVTDGAWRHFRLVLTTQAQRAEEARQQAISGGTEPSAFPDTLPGYTEYGRDNGIRLSAVWLTHDPEYPENLPAAPLVRYGWTPRGELAVVYDRSGKQVRSFTYDDKYRGRMVAHRHTGRPEIRYRYDSDGRVTEQLNPAGLSYTYQYEKDRITITDSLDRREVLHTQGEAGLKRVVKKEHADGSVTQSQFDAVGRLRAQTDAAGRTTEYSPDVVTGLITRITTPDGRASAFYYNHHNQLTSATGPDGLELRREYDELGRLIQETAPDGDITRYRYDNPHSDLPCATEDATGSRKTMTWSRYGQLLSFTDCSGYVTRYDHDRFGQMTAVHREEGLSQYRAYDSRGQLIAVKDTQGHETRYEYNIAGDLTAVIAPDGSRNGTQYDAWGKAVRTTQGGLTRSMEYDAAGRVIRLTSENGSHTTFRYDVLDRLIQETGFDGRTQRYHHDLTGKLIRSEDEGLVTHWHYDEADRLTHRTVKGETAERWQYDERGWLTDISHISEGHRVAVHYRYDEKGRLTGERQTVHHPQTEALLWQHETRHAYNAQGLANRCIPDSLPAVEWLTYGSGYLAGMKLGDTPLVEYTRDRLHRETLRSFGRYELTTAYTPAGQLQSQHLNSLLSDRDYTWNDNGELIRISSPRQTRSYSYSTTGRLTGVHTTAANLDIRIPYATDPAGNRLPDPELHPDSTLSMWPDNRIARDAHYLYRYDRHGRLTEKTDLIPEGVIRTDDERTHRYHYDSQHRLVHYTRTQYEEPLVESRYLYDPLGRRVAKRVWRRERDLTGWMSLSRKPQVTWYGWDGDRLTTIQNDRSRIQTIYQPGSFTPLIRVETATGELAKTQRRSLADALQQSGGEDGGSVVFPPVLVQMLDRLESEILADRVSEESRRWLASCGLTVEQMQNQMDPVYTPARKIHLYHCDHRGLPLALISTEGATAWCAEYDEWGNLLNEENPHQLQQLIRLPGQQYDEESGLYYNRHRYYDPLQGRYITQDPIGLKGGWNLYGYQLNPISDIDPLGLSMWEDAKSGACTNGLCGTLSAMIGPDKFDSIDSTAYDALNKINSQSICEDKEFAGLICKDNSGRYFSTAPNRGERKGSYPFNSPCPNGTEKVSAYHTHGADSHGEYWDEIFSGKDEKIVKSKDNNIKSFYLGTPSGNFKAIDNHGKEITNRKGLPNVCRVHGNM | 13.7 h | 5.71 h | 6.16 ± 0.29 h | 5.99 ± 0.77 h | 15.1 h | 5.88 h | 12.5 ± 0.6 h | 4.38 h | – | – | – | – |
| MSGLKQELGLAQGIGLLSTSLLGTGVFAVPALAALVAGNNSLWAWPVLIILVFPIAIVFAILGRHYPSAGGVAHFVGMAFGSRLERVTGWLFLSVIPVGLPAALQIAAGFGQAMFGWHSWQLLLAELGTLALVWYIGTRGASSSANLQTVIAGLIVALIVAIWWAGDIKPANIPFPAPGNIELTGLFAALSVMFWCFVGLEAFAHLASEFKNPERDFPRALMIGLLLAGLVYWGCTVVVLHFDAYGEKMAAAASLPKIVVQLFGVGALWIACVIGYLACFASLNIYIQSFARLVWSQAQHNPDHYLARLSSRHIPNNALNAVLGCCVVSTLVIHALEINLDALIIYANGIFIMIYLLCMLAGCKLLQGRYRLLAVVGGLLCVLLLAMVGWKSLYALIMLAGLWLLLPKRKTPENGITT | 12 h | – | – | – | – | – | – | 4.1 h | 3.09 h | 5.32 h | – | – |
| MSGLPLISRRRLLTAMALSPLLWQMNTAHAAAIDPNRIVALEWLPVELLLALGIVPYGVADTINYRLWVSEPPLPDSVIDVGLRTEPNLELLTEMKPSFMVWSAGYGPSPEMLARIAPGRGFNFSDGKQPLAMARKSLTEMADLLNLQSAAETHLAQYEDFIRSMKPRFVKRGARPLLLTTLIDPRHMLVFGPNSLFQEILDEYGIPNAWQGETNFWGSTAVSIDRLAAYKDVDVLCFDHDNSKDMDALMATPLWQAMPFVRAGRFQRVPAVWFYGATLSAMHFVRVLDNAIGGKA | – | – | 6.62 h | 5.86 h | 12.2 h | 5.85 h | 12 ± 1.3 h | – | 6.51 ± 1.4 h | 3.92 ± 1.1 h | 2.71 h | – |
| MSGQGKRLMVMAGGTGGHVFPGLAVAHHLMAQGWQVRWLGTADRMEADLVPKHGIEIDFIRISGLRGKGIKALIAAPLRIFNAWRQARAIMKAYKPDVVLGMGGYVSGPGGLAAWSLGIPVVLHEQNGIAGLTNKWLAKIATKVMQAFPGAFPNAEVVGNPVRTDVLALPLPQQRLAGREGPVRVLVVGGSQGARILNQTMPQVAAKLGDSVTIWHQSGKGSQQSVEQAYAEAGQPQHKVTEFIDDMAAAYAWADVVVCRSGALTVSEIAAAGLPALFVPFQHKDRQQYWNALPLEKAGAAKIIEQPQLSVDAVANTLAGWSRETLLTMAERARAASIPDATERVANEVSRVARA | 11.6 ± 0.54 h | 6.19 ± 0.33 h | 6.2 ± 0.14 h | 6.82 ± 0.71 h | 10.9 ± 0.94 h | 6.21 ± 0.43 h | 12.6 ± 0.14 h | 6.05 ± 0.2 h | 6.36 ± 0.52 h | 6.16 ± 0.19 h | 3.02 ± 0.13 h | 5.45 ± 0.24 h |
